According to US20220372155A1 (LYVGEN BIOPHARMA, published 2022):

B1: Ly415 (bispecific antibody, human IgG1, kappa)
heavy: EVQLVESGGGLVQPGGSLRLSCAASGFNIKDTYMHWVRQAPGKGLEWVARIDPANGNSKYADSVKGRFTISADTSKNTAYLQMNSLRAEDTAVYYCAPFGYYVSDYAMAYWGQGTLVTVSSASTKGPSVFPLAPSSKSTSGGTAALGCLVKDYFPEPVTVSWNSGALTSGVHTFPAVLQSSGLYSLSSVVTVPSSSLGTQTYICNVNHKPSNTKVDKKVEPKSCDKTHTCPPCPAPELLGPSVFLFPPKPKDTLMISRTPEVTCVVVDVSHEDPEVKFNWYVDGVEVHNAKTKPREEQYNSTYRVVSVLTVLHQDWLNGKEYKCKVSNKALPAPIEKTISKAKGQPREPQVYTLPPSREEMTKNQVSLTCLVKGFYPSDIAVEWESNGQPENNYKTTPPVLDSDGSFFLYSKLTVDKSRWQQGNVFSCSVMHEALHNHYTQKSLSLSPGK
light: DIQLTQSPSSLSASVGDRVTITCRAGESVDIFGVGFLHWYQQKPGKAPKLLIYRASNLESGVPSRFSGSGSRTDFTLTISSLQPEDFATYYCQQTNEDPYTFGQGTKVEIKRTVAAPSVFIFPPSDEQLKSGTASVVCLLNNFYPREAKVQWKVDNALQSGNSQESVTEQDSKDSTYSLSSTLTLSKADYEKHKVYACEVTHQGLSSPVTKSFNRGECGGGGSGGGGSGGGGSGGGGSDIQMTQSPSSLSASVGDRVTITCLASEDISNDLAWYQQKPGKAPKLLIYFVDRLLDGVPSRFSGSGSGTDFTLTISSLQPEDFATYYCQQSYKYPPTFGQGTKLEIKGGGGSGGGGSGGGGSGGGGSEVQLVESGGGLVQPGGSLRLSCAASGFTFTNYGLHWVRQAPGKGLEWVSSISPSGGVTYYRDSVKGRFTISRDNSKNTLYLQMNSLRAEDTAVYYCAKPFLGWGGANWIAHWGQGTLVTVSS
notes: Ly312 HC (IgG1 mutated Fc) + Ly312 LC-TM559 scFv VL-VH
B2: Ly423 (bispecific antibody, human IgG1, kappa)
heavy: EVQLVESGGGLVQPGGSLRLSCAASGFNIKDTYMHWVRQAPGKGLEWVARIDPANGNSKYADSVKGRFTISADTSKNTAYLQMNSLRAEDTAVYYCAPFGYYVSDYAMAYWGQGTLVTVSSASTKGPSVFPLAPSSKSTSGGTAALGCLVKDYFPEPVTVSWNSGALTSGVHTFPAVLQSSGLYSLSSVVTVPSSSLGTQTYICNVNHKPSNTKVDKKVEPKSCDKTHTCPPCPAPELLGPSVFLFPPKPKDTLMISRTPEVTCVVVDVSHEDPEVKFNWYVDGVEVHNAKTKPREEQYNSTYRVVSVLTVLHQDWLNGKEYKCKVSNKALPAPIEKTISKAKGQPREPQVYTLPPSREEMTKNQVSLTCLVKGFYPSDIAVEWESNGQPENNYKTTPPVLDSDGSFFLYSKLTVDKSRWQQGNVFSCSVMHEALHNHYTQKSLSLSPGK
light: not shown
notes: Ly312 HC (IgG1 mutated Fc) + Ly312 LC-Ly253 scFv VL-VH
B3: Ly424 (bispecific antibody, human IgG1, kappa)
heavy: EVQLVESGGGLVQPGGSLRLSCAASGFNIKDTYMHWVRQAPGKGLEWVARIDPANGNSKYADSVKGRFTISADTSKNTAYLQMNSLRAEDTAVYYCAPFGYYVSDYAMAYWGQGTLVTVSSASTKGPSVFPLAPSSKSTSGGTAALGCLVKDYFPEPVTVSWNSGALTSGVHTFPAVLQSSGLYSLSSVVTVPSSSLGTQTYICNVNHKPSNTKVDKKVEPKSCDKTHTCPPCPAPELLGPSVFLFPPKPKDTLMISRTPEVTCVVVDVSHEDPEVKFNWYVDGVEVHNAKTKPREEQYNSTYRVVSVLTVLHQDWLNGKEYKCKVSNKALPAPIEKTISKAKGQPREPQVYTLPPSREEMTKNQVSLTCLVKGFYPSDIAVEWESNGQPENNYKTTPPVLDSDGSFFLYSKLTVDKSRWQQGNVFSCSVMHEALHNHYTQKSLSLSPGK
light: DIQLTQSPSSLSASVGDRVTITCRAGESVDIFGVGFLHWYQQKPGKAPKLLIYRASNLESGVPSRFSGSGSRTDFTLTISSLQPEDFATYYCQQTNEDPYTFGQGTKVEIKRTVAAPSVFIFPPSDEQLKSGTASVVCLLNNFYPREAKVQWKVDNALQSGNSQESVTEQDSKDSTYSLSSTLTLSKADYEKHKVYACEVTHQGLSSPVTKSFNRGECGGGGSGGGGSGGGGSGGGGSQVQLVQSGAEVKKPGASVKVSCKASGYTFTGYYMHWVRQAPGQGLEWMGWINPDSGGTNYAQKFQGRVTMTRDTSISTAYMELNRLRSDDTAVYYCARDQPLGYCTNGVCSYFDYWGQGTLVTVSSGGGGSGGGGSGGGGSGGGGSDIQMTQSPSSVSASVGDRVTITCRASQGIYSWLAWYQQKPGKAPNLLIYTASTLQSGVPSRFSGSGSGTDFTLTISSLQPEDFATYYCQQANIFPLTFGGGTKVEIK
notes: Ly312 HC (IgG1 mutated Fc) + Ly312 LC-Ly253 scFv VH-VL
B4: Ly416 (bispecific antibody, human IgG1, kappa)
heavy: EVQLVESGGGLVQPGGSLRLSCAASGFNIKDTYMHWVRQAPGKGLEWVARIDPANGNSKYADSVKGRFTISADTSKNTAYLQMNSLRAEDTAVYYCAPFGYYVSDYAMAYWGQGTLVTVSSASTKGPSVFPLAPSSKSTSGGTAALGCLVKDYFPEPVTVSWNSGALTSGVHTFPAVLQSSGLYSLSSVVTVPSSSLGTQTYICNVNHKPSNTKVDKKVEPKSCDKTHTCPPCPAPELLGPSVFLFPPKPKDTLMISRTPEVTCVVVDVSHEDPEVKFNWYVDGVEVHNAKTKPREEQYNSTYRVVSVLTVLHQDWLNGKEYKCKVSNKALPAPIEKTISKAKGQPREPQVYTLPPSREEMTKNQVSLTCLVKGFYPSDIAVEWESNGQPENNYKTTPPVLDSDGSFFLYSKLTVDKSRWQQGNVFSCSVMHEALHNHYTQKSLSLSPGK
light: DIQLTQSPSSLSASVGDRVTITCRAGESVDIFGVGFLHWYQQKPGKAPKLLIYRASNLESGVPSRFSGSGSRTDFTLTISSLQPEDFATYYCQQTNEDPYTFGQGTKVEIKRTVAAPSVFIFPPSDEQLKSGTASVVCLLNNFYPREAKVQWKVDNALQSGNSQESVTEQDSKDSTYSLSSTLTLSKADYEKHKVYACEVTHQGLSSPVTKSFNRGECGGGGSGGGGSGGGGSGGGGSEVQLVESGGGLVQPGGSLRLSCAASGFTFTNYGLHWVRQAPGKGLEWVSSISPSGGVTYYRDSVKGRFTISRDNSKNTLYLQMNSLRAEDTAVYYCAKPFLGWGGANWIAHWGQGTLVTVSSGGGGSGGGGSGGGGSGGGGSDIQMTQSPSSLSASVGDRVTITCLASEDISNDLAWYQQKPGKAPKLLIYFVDRLLDGVPSRFSGSGSGTDFTLTISSLQPEDFATYYCQQSYKYPPTFGQGTKLEIK
notes: Ly312 HC (IgG1 mutated Fc) + Ly312 LC-TM559 scFv VH-VL
B5: Ly462 (bispecific antibody, human IgG1, kappa)
heavy: QVQLKESGPGLVAPSQSLSITCTVSGFSLTDYGVRWIRQPPGKGLEWLGVIWGGGSTYYNSALKSRLSISKDNSKSQVFLKMNSLQTDDTAMYYCAKEKRRGYYYAMDYWGQGTSVTVSSASTKGPSVFPLAPSSKSTSGGTAALGCLVKDYFPEPVTVSWNSGALTSGVHTFPAVLQSSGLYSLSSVVTVPSSSLGTQTYICNVNHKPSNTKVDKKVEPKSCDKTHTCPPCPAPELLGPSVFLFPPKPKDTLMISRTPEVTCVVVDVSHEDPEVKFNWYVDGVEVHNAKTKPREEQYNSTYRVVSVLTVLHQDWLNGKEYKCKVSNKALPAPIEKTISKAKGQPREPQVYTLPPSREEMTKNQVSLTCLVKGFYPSDIAVEWESNGQPENNYKTTPPVLDSDGSFFLYSKLTVDKSRWQQGNVFSCSVMHEALHNHYTQKSLSLSPGGGGGSGGGGSGGGGSGGGGSDIQMTQSPSSLSASVGDRVTITCKASQNIYIYLNWYQQKPGKAPKLLIYNTNNLQTGVPSRFSGSGSGTDFTLTISSLQPEDFATYYCLQHSSRRTFGGGTKVEIKGGGGSGGGGSGGGGSGGGGSQVQLVESGGGLVQPGGSLKLSCATSGFNFNDYFMNWVRQASGKGLEWVGQIRNKNYNYATYYTESLEGRVTISRDDSKNTAYLQMNSLKTEDTAVYYCTSYYYDGFADYFDYWGQGTTVTVSS
light: ENVLTQSPAIMSASPGEKVTMTCRASSSVSSSYLHWYQQKSGASPKLWIYSTSNLASGVPARFSGSGSGTSYSLTISSVEAEDAATYYCQQYSGYPLTFGGGTKLEIKRTVAAPSVFIFPPSDEQLKSGTASVVCLLNNFYPREAKVQWKVDNALQSGNSQESVTEQDSKDSTYSLSSTLTLSKADYEKHKVYACEVTHQGLSSPVTKSFNRGEC
notes: Ly368 HC-TM740 scFv VL-VH + Ly368 LC
B6: Ly419 (bispecific antibody, human IgG1, kappa)
heavy: EVQLVESGGGVVQPGRSLRLSCSASGFDFTTYWMSWVRQAPGKGLEWIGEIHPDSSTINYAPSLKDRFTISRDNAKNTLFLQMDSLRPEDTGVYFCASLYFGFPWFAYWGQGTPVTVSSASTKGPSVFPLAPSSKSTSGGTAALGCLVKDYFPEPVTVSWNSGALTSGVHTFPAVLQSSGLYSLSSVVTVPSSSLGTQTYICNVNHKPSNTKVDKKVEPKSCDKTHTCPPCPAPELLGPSVFLFPPKPKDTLMISRTPEVTCVVVDVSHEDPEVKFNWYVDGVEVHNAKTKPREEQYNSTYRVVSVLTVLHQDWLNGKEYKCKVSNKALPAPIEKTISKAKGQPREPQVYTLPPSREEMTKNQVSLTCLVKGFYPSDIAVEWESNGQPENNYKTTPPVLDSDGSFFLYSKLTVDKSRWQQGNVFSCSVMHEALHNHYTQKSLSLSPGK
light: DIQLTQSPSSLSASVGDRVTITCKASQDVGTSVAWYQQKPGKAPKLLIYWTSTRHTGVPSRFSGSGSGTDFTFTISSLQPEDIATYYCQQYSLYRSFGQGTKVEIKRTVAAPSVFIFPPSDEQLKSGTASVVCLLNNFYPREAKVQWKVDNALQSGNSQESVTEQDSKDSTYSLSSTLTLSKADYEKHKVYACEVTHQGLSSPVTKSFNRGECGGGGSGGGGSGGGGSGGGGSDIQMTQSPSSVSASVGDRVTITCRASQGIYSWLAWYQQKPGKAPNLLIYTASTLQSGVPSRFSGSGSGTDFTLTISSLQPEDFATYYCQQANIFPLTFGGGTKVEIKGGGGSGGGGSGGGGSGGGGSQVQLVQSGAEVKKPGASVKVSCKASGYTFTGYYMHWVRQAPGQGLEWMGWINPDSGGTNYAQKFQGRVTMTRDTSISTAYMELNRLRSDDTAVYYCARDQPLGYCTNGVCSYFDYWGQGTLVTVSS
notes: Ly311 HC (IgG1 mutated Fc) + Ly311 LC-Ly253 scFv VL-VH
B7: Ly420 (bispecific antibody, human IgG1, kappa)
heavy: EVQLVESGGGVVQPGRSLRLSCSASGFDFTTYWMSWVRQAPGKGLEWIGEIHPDSSTINYAPSLKDRFTISRDNAKNTLFLQMDSLRPEDTGVYFCASLYFGFPWFAYWGQGTPVTVSSASTKGPSVFPLAPSSKSTSGGTAALGCLVKDYFPEPVTVSWNSGALTSGVHTFPAVLQSSGLYSLSSVVTVPSSSLGTQTYICNVNHKPSNTKVDKKVEPKSCDKTHTCPPCPAPELLGPSVFLFPPKPKDTLMISRTPEVTCVVVDVSHEDPEVKFNWYVDGVEVHNAKTKPREEQYNSTYRVVSVLTVLHQDWLNGKEYKCKVSNKALPAPIEKTISKAKGQPREPQVYTLPPSREEMTKNQVSLTCLVKGFYPSDIAVEWESNGQPENNYKTTPPVLDSDGSFFLYSKLTVDKSRWQQGNVFSCSVMHEALHNHYTQKSLSLSPGK
light: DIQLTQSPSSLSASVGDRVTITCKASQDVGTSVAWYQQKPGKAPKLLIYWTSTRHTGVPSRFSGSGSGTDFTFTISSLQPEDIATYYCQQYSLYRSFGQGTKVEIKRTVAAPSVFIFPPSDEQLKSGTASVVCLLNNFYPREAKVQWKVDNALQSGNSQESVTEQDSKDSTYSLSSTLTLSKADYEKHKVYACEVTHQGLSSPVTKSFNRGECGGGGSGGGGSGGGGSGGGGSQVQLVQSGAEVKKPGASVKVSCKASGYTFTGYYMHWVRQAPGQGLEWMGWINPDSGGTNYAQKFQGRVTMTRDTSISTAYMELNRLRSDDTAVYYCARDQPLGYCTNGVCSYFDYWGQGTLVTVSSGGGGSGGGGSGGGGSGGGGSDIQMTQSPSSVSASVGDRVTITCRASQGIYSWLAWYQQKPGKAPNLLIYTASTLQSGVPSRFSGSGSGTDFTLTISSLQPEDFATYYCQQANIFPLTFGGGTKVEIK
notes: Ly311 HC (IgG1 mutated Fc) + Ly311 LC-Ly253 scFv VH-VL
B8: Ly421 (bispecific antibody, human IgG1, kappa)
heavy: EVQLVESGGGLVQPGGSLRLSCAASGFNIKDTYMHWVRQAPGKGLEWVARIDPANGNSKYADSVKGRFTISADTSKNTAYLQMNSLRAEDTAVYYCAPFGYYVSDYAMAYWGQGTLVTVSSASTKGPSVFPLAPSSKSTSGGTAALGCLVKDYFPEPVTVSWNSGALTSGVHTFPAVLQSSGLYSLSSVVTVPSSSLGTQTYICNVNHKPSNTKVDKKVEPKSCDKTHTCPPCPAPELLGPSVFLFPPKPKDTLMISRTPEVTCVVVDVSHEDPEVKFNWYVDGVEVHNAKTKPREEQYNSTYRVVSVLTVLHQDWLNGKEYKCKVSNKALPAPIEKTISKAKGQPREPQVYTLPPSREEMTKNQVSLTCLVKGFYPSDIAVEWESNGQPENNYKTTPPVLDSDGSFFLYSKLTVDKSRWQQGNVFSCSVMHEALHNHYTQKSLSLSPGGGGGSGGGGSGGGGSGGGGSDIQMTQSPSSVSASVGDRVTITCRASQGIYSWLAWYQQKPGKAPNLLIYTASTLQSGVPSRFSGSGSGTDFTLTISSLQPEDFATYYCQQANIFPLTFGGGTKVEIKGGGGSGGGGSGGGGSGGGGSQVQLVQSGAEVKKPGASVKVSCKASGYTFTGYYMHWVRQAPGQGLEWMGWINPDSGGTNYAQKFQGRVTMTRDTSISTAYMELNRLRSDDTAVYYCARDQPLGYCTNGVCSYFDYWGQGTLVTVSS
light: DIQLTQSPSSLSASVGDRVTITCRAGESVDIFGVGFLHWYQQKPGKAPKLLIYRASNLESGVPSRFSGSGSRTDFTLTISSLQPEDFATYYCQQTNEDPYTFGQGTKVEIKRTVAAPSVFIFPPSDEQLKSGTASVVCLLNNFYPREAKVQWKVDNALQSGNSQESVTEQDSKDSTYSLSSTLTLSKADYEKHKVYACEVTHQGLSSPVTKSFNRGEC
notes: Ly312 HC (IgG1 mutated Fc)-Ly253 scFv VL-VH + Ly312 LC
B9: Ly422 (bispecific antibody, human IgG1, kappa)
heavy: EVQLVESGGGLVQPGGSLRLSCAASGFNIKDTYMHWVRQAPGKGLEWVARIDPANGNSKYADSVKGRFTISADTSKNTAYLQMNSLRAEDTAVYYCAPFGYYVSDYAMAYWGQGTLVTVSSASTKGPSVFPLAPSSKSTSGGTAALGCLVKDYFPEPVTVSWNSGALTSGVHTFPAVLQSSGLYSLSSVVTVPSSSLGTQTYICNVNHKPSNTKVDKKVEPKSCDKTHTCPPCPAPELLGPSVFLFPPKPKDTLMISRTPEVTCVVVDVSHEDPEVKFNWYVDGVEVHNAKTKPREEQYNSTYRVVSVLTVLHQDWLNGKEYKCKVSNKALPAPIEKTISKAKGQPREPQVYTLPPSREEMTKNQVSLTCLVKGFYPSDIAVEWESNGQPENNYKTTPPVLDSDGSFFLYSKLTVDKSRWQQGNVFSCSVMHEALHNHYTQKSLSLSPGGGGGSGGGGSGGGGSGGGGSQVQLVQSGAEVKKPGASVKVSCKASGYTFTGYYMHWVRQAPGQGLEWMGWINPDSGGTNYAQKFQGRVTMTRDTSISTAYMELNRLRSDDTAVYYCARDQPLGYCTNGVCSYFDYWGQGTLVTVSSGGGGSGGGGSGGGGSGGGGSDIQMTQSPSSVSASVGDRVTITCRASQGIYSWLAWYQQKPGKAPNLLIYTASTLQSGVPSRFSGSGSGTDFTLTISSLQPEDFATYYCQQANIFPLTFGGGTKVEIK
light: DIQLTQSPSSLSASVGDRVTITCRAGESVDIFGVGFLHWYQQKPGKAPKLLIYRASNLESGVPSRFSGSGSRTDFTLTISSLQPEDFATYYCQQTNEDPYTFGQGTKVEIKRTVAAPSVFIFPPSDEQLKSGTASVVCLLNNFYPREAKVQWKVDNALQSGNSQESVTEQDSKDSTYSLSSTLTLSKADYEKHKVYACEVTHQGLSSPVTKSFNRGEC
notes: Ly312 HC (IgG1 mutated Fc)-Ly253 scFv VH-VL + Ly312 LC
B10: Ly417 (bispecific antibody, human IgG1, kappa)
heavy: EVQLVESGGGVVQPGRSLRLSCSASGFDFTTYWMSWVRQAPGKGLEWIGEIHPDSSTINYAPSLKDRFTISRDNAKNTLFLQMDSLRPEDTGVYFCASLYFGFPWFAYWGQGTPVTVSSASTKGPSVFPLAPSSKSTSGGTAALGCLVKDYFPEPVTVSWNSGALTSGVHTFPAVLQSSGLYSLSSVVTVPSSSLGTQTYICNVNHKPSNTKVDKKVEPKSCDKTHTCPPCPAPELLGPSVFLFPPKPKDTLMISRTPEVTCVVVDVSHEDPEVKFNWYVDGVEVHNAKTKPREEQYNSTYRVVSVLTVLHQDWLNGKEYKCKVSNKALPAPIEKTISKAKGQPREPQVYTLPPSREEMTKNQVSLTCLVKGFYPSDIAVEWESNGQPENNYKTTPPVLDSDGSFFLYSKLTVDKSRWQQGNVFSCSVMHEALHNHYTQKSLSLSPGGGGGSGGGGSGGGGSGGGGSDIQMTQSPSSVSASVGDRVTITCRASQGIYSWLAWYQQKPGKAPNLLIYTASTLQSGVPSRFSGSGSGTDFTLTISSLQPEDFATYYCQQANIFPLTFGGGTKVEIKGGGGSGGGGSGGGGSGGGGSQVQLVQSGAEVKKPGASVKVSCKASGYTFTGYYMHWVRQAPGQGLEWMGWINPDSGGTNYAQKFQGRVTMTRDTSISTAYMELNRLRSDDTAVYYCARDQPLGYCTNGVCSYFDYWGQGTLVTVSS
light: DIQLTQSPSSLSASVGDRVTITCKASQDVGTSVAWYQQKPGKAPKLLIYWTSTRHTGVPSRFSGSGSGTDFTFTISSLQPEDIATYYCQQYSLYRSFGQGTKVEIKRTVAAPSVFIFPPSDEQLKSGTASVVCLLNNFYPREAKVQWKVDNALQSGNSQESVTEQDSKDSTYSLSSTLTLSKADYEKHKVYACEVTHQGLSSPVTKSFNRGEC
notes: Ly311 HC (IgG1 mutated Fc)-Ly253 scFv VL-VH + Ly311 LC
B11: Ly418 (bispecific antibody, human IgG1, kappa)
heavy: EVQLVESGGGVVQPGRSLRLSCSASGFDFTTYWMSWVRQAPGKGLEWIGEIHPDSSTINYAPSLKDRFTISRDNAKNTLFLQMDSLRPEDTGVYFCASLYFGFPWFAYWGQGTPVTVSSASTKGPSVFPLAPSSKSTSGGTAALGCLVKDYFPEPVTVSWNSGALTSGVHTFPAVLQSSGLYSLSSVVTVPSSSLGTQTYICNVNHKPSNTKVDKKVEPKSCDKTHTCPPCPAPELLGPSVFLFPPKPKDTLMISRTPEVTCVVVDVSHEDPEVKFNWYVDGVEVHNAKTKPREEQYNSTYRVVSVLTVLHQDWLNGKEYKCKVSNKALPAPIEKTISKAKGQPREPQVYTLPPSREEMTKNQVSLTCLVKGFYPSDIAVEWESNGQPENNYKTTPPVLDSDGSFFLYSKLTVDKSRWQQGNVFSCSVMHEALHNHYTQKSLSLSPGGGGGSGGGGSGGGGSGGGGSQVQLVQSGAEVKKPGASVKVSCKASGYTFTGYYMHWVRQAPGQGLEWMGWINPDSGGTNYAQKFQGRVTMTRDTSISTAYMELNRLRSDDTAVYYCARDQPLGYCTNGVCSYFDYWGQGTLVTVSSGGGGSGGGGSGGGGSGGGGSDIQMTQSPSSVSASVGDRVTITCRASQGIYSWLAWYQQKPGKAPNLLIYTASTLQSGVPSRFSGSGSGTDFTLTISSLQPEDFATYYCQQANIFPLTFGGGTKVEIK
light: DIQLTQSPSSLSASVGDRVTITCKASQDVGTSVAWYQQKPGKAPKLLIYWTSTRHTGVPSRFSGSGSGTDFTFTISSLQPEDIATYYCQQYSLYRSFGQGTKVEIKRTVAAPSVFIFPPSDEQLKSGTASVVCLLNNFYPREAKVQWKVDNALQSGNSQESVTEQDSKDSTYSLSSTLTLSKADYEKHKVYACEVTHQGLSSPVTKSFNRGEC
notes: Ly311 HC (IgG1 mutated Fc)-Ly253 scFv VH-VL + Ly311 LC

The binders below were run against T1, human CD40 expressed on CHO cells (human, UniProt P25942 21-277) (assay: FACS, CHO cells).
T1 construct: whole, on cells; also used for the reporter cells over-expressing human CD40; also called cellular CD40; CHO-CD40 cells
T1 sequence (P25942 21-277): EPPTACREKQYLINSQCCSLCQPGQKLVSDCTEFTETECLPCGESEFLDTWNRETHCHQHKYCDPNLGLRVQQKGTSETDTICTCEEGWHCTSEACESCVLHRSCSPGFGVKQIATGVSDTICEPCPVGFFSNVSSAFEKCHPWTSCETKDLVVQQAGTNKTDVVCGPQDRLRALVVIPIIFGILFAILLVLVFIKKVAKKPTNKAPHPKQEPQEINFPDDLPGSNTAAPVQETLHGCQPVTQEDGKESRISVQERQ

Binding result, binds:
B1
B2
B3
B4
B5
B6
B7
B8
B9
B10
B11
